From patent US20230295310A1 (ABCELLERA BIOLOGICS, published 2023)

Each binder was assayed against EGFR on HeLa cells (UniProt P00533 25-1210, limits assumed) (assay: cell-based or functional assay).

X… HeLa EC50 [pM] | Binder | Max killing % [%]
374 | GOMP001_bsAb_039 (bispecific antibody, human IgG1, kappa, L234A L235A) heavy 1: QVQLVQSGAEVKKPGASVKVSCKASGYTFTSHWMHWVRKAPGQGLEWIGEFNPSNGRTNYNEEFKSKATMTVDTSTNTAYMELSSLRSEDTAVYYCASRDYDYDGRYFDYWGQGTLVTVSSASTKGPSVFPLAPSSKSTSGGTAALGCLVADYFPEPVTVSWNSGALTSGVHTFPAVLQSSGLYSLSSVVTVPSSSLGTQTYICNVNHKPSNTKVDEKVEPKSCDKTHTCPPCPAPEAAGGPSVFLFPPKPKDTLMISRTPEVTCVVVDVSHEDPEVKFNWYVDGVEVHNAKTKPREEQYNSTYRVVSVLTVLHQDWLNGKEYKCKVSNKALPAPIEKTISKAKGQPREPQVYTLPPSREEMTDNQVSLTCLVKGFYPSDIAVEWESNGQPENNYKTTPPVLMSDGSFFLASKLTVDKSRWQQGNVFSCSVMHEALHNHYTQKSLSLSPG light 1: RIQMTQSPSSLSASVGDRVTITCSASSSVTYMYWYQDKPGKAPKLLIYDTSNLASGVPSRFSGSGSGTDYTFTISSLQPEDIATYYCQQWSSHIFTFGQGTKVEIKRTVAAPSVFIFPPSDKQLKSGTARVVCLLNNFYPREAKVQWKVDNALQSGNSQESVTEQDSKDSTYSLSSTLTLSKADYEKHKVYACEVTHQGLSSPVTKSFNRGEC heavy 2: EVQLVESGGGLVKTGGSHRLSCVASGFSFKKAWMNWVRYAPGKGLEWVGRIKRNSDGGTTDYAARVKGRFILSRDDSKNTLYLQMNSLKTEDTAVYYCTTLDSSSWYVGYYYMDVWGRGTTVTVSSASTKGPSVFPLAPSSKSTSGGTAALGCLVKDYFPEPVTVSWNSGALTSGVHTFPAVLQSSGLYSLSSVVTVPSSSLGTQTYICNVNHKPSNTKVDKKVEPKSCDKTHTCPPCPAPEAAGGPSVFLFPPKPKDTLMISRTPEVTCVVVDVSHEDPEVKFNWYVDGVEVHNAKTKPREEQYNSTYRVVSVLTVLHQDWLNGKEYKCKVSNKALPAPIEKTISKAKGQPRRPRVYTLPPSREEMTKNQVSLVCLVKGFYPSDIAVEWESNGQPENNYKTTPPVLDSDGSFFLYSVLTVDKSRWQQGNVFSCSVMHEALHNHYTQKSLSLSPG light 2: DIQMTQSPSSVSASVGDRVTITCRASQDINNWLAWYQRKPGDAPKILIYTASNLQSGVPSRFSGSGSGTDFTLTISSLQPEDFATYFCQQAHSLPITFGQGTRLEIKRTVAAPSVFIFPPSDEQLKSGTASVVCLLNNFYPREAKVQWKVDNALQSGNSQESVTEQDSKDSTYSLSSTLTLSKADYEKHKVYACEVTHQGLSSPVTKSFNRGEC | 81.1
34.1 | GOMP001_bsAb_042 (bispecific antibody, human IgG1, kappa, L234A L235A) heavy 1: EVQLVESGGGLVKTGGSLRLSCVASGFSFKKAWMNWVRKAPGKGLEWVGRIKRNTDGGPADYAAEVKGRFTLSRDDSKKTLYLQMNSLKTEDTAVYYCTTLDSSSWYVGYYYMDVWGKGTTVTVSSASTKGPSVFPLAPSSKSTSGGTAALGCLVADYFPEPVTVSWNSGALTSGVHTFPAVLQSSGLYSLSSVVTVPSSSLGTQTYICNVNHKPSNTKVDEKVEPKSCDKTHTCPPCPAPEAAGGPSVFLFPPKPKDTLMISRTPEVTCVVVDVSHEDPEVKFNWYVDGVEVHNAKTKPREEQYNSTYRVVSVLTVLHQDWLNGKEYKCKVSNKALPAPIEKTISKAKGQPREPQVYTLPPSREEMTDNQVSLTCLVKGFYPSDIAVEWESNGQPENNYKTTPPVLMSDGSFFLASKLTVDKSRWQQGNVFSCSVMHEALHNHYTQKSLSLSPG light 1: RIQMTQSPSSVSASVGDRVIITCRASQDINNWLAWYLDRPGKAPKLLIYAASSLQSGVPSRFSGSGSGTDFTLTIGSLQPEDFATYYCQQAHSLPITFGQGTRLEIQRTVAAPSVFIFPPSDKQLKSGTARVVCLLNNFYPREAKVQWKVDNALQSGNSQESVTEQDSKDSTYSLSSTLTLSKADYEKHKVYACEVTHQGLSSPVTKSFNRGEC heavy 2: QVQLVQSGAEVKKPGASVKVSCKASGYTFTSHWMHWVRYAPGQGLEWIGEFNPSNGRTNYNEKFKSKATMTVDTSTNTAYMELSSLRSEDTAVYYCASRDYDYDGRYFDYWGRGTLVTVSSASTKGPSVFPLAPSSKSTSGGTAALGCLVKDYFPEPVTVSWNSGALTSGVHTFPAVLQSSGLYSLSSVVTVPSSSLGTQTYICNVNHKPSNTKVDKKVEPKSCDKTHTCPPCPAPEAAGGPSVFLFPPKPKDTLMISRTPEVTCVVVDVSHEDPEVKFNWYVDGVEVHNAKTKPREEQYNSTYRVVSVLTVLHQDWLNGKEYKCKVSNKALPAPIEKTISKAKGQPRRPRVYTLPPSREEMTKNQVSLVCLVKGFYPSDIAVEWESNGQPENNYKTTPPVLDSDGSFFLYSVLTVDKSRWQQGNVFSCSVMHEALHNHYTQKSLSLSPG light 2: DIQMTQSPSSLSASVGDRVTITCSASSSVTYMYWYQRKPGDAPKLLIYDTSNLASGVPSRFSGSGSGTDYTFTISSLQPEDIATYYCQQWSSHIFTFGQGTKVEIKRTVAAPSVFIFPPSDEQLKSGTASVVCLLNNFYPREAKVQWKVDNALQSGNSQESVTEQDSKDSTYSLSSTLTLSKADYEKHKVYACEVTHQGLSSPVTKSFNRGEC | 84.8
449 | GOMP001_bsAb_041 (bispecific antibody, human IgG1, kappa, L234A L235A) heavy 1: QVQLVQSGAEVKKPGASVKVSCKASGYTFTSHWMHWVRKAPGQGLEWIGEFNPSNGRTNYNEEFKSKATMTVDTSTNTAYMELSSLRSEDTAVYYCASRDYDYDGRYFDYWGQGTLVTVSSASTKGPSVFPLAPSSKSTSGGTAALGCLVADYFPEPVTVSWNSGALTSGVHTFPAVLQSSGLYSLSSVVTVPSSSLGTQTYICNVNHKPSNTKVDEKVEPKSCDKTHTCPPCPAPEAAGGPSVFLFPPKPKDTLMISRTPEVTCVVVDVSHEDPEVKFNWYVDGVEVHNAKTKPREEQYNSTYRVVSVLTVLHQDWLNGKEYKCKVSNKALPAPIEKTISKAKGQPREPQVYTLPPSREEMTDNQVSLTCLVKGFYPSDIAVEWESNGQPENNYKTTPPVLMSDGSFFLASKLTVDKSRWQQGNVFSCSVMHEALHNHYTQKSLSLSPG light 1: RIQMTQSPSSLSASVGDRVTITCSASSSVTYMYWYQDKPGKAPKLLIYDTSNLASGVPSRFSGSGSGTDYTFTISSLQPEDIATYYCQQWSSHIFTFGQGTKVEIKRTVAAPSVFIFPPSDKQLKSGTARVVCLLNNFYPREAKVQWKVDNALQSGNSQESVTEQDSKDSTYSLSSTLTLSKADYEKHKVYACEVTHQGLSSPVTKSFNRGEC heavy 2: EVQLVESGGGLVKTGGSLRLSCVASGFSFKKAWMNWVRYAPGKGLEWVGRIKRNTDGGPADYAARVKGRFTLSRDDSKKTLYLQMNSLKTEDTAVYYCTTLDSSSWYVGYYYMDVWGRGTTVTVSSASTKGPSVFPLAPSSKSTSGGTAALGCLVKDYFPEPVTVSWNSGALTSGVHTFPAVLQSSGLYSLSSVVTVPSSSLGTQTYICNVNHKPSNTKVDKKVEPKSCDKTHTCPPCPAPEAAGGPSVFLFPPKPKDTLMISRTPEVTCVVVDVSHEDPEVKFNWYVDGVEVHNAKTKPREEQYNSTYRVVSVLTVLHQDWLNGKEYKCKVSNKALPAPIEKTISKAKGQPRRPRVYTLPPSREEMTKNQVSLVCLVKGFYPSDIAVEWESNGQPENNYKTTPPVLDSDGSFFLYSVLTVDKSRWQQGNVFSCSVMHEALHNHYTQKSLSLSPG light 2: DIQMTQSPSSVSASVGDRVIITCRASQDINNWLAWYLRRPGDAPKLLIYAASSLQSGVPSRFSGSGSGTDFTLTIGSLQPEDFATYYCQQAHSLPITFGQGTRLEIQRTVAAPSVFIFPPSDEQLKSGTASVVCLLNNFYPREAKVQWKVDNALQSGNSQESVTEQDSKDSTYSLSSTLTLSKADYEKHKVYACEVTHQGLSSPVTKSFNRGEC | 78.6
39.1 | GOMP001_bsAb_040 (bispecific antibody, human IgG1, kappa, L234A L235A) heavy 1: EVQLVESGGGLVKTGGSHRLSCVASGFSFKKAWMNWVRKAPGKGLEWVGRIKRNSDGGTTDYAAEVKGRFILSRDDSKNTLYLQMNSLKTEDTAVYYCTTLDSSSWYVGYYYMDVWGKGTTVTVSSASTKGPSVFPLAPSSKSTSGGTAALGCLVADYFPEPVTVSWNSGALTSGVHTFPAVLQSSGLYSLSSVVTVPSSSLGTQTYICNVNHKPSNTKVDEKVEPKSCDKTHTCPPCPAPEAAGGPSVFLFPPKPKDTLMISRTPEVTCVVVDVSHEDPEVKFNWYVDGVEVHNAKTKPREEQYNSTYRVVSVLTVLHQDWLNGKEYKCKVSNKALPAPIEKTISKAKGQPREPQVYTLPPSREEMTDNQVSLTCLVKGFYPSDIAVEWESNGQPENNYKTTPPVLMSDGSFFLASKLTVDKSRWQQGNVFSCSVMHEALHNHYTQKSLSLSPG light 1: RIQMTQSPSSVSASVGDRVTITCRASQDINNWLAWYQDKPGKAPKILIYTASNLQSGVPSRFSGSGSGTDFTLTISSLQPEDFATYFCQQAHSLPITFGQGTRLEIKRTVAAPSVFIFPPSDKQLKSGTARVVCLLNNFYPREAKVQWKVDNALQSGNSQESVTEQDSKDSTYSLSSTLTLSKADYEKHKVYACEVTHQGLSSPVTKSFNRGEC heavy 2: QVQLVQSGAEVKKPGASVKVSCKASGYTFTSHWMHWVRYAPGQGLEWIGEFNPSNGRTNYNEKFKSKATMTVDTSTNTAYMELSSLRSEDTAVYYCASRDYDYDGRYFDYWGRGTLVTVSSASTKGPSVFPLAPSSKSTSGGTAALGCLVKDYFPEPVTVSWNSGALTSGVHTFPAVLQSSGLYSLSSVVTVPSSSLGTQTYICNVNHKPSNTKVDKKVEPKSCDKTHTCPPCPAPEAAGGPSVFLFPPKPKDTLMISRTPEVTCVVVDVSHEDPEVKFNWYVDGVEVHNAKTKPREEQYNSTYRVVSVLTVLHQDWLNGKEYKCKVSNKALPAPIEKTISKAKGQPRRPRVYTLPPSREEMTKNQVSLVCLVKGFYPSDIAVEWESNGQPENNYKTTPPVLDSDGSFFLYSVLTVDKSRWQQGNVFSCSVMHEALHNHYTQKSLSLSPG light 2: DIQMTQSPSSLSASVGDRVTITCSASSSVTYMYWYQRKPGDAPKLLIYDTSNLASGVPSRFSGSGSGTDYTFTISSLQPEDIATYYCQQWSSHIFTFGQGTKVEIKRTVAAPSVFIFPPSDEQLKSGTASVVCLLNNFYPREAKVQWKVDNALQSGNSQESVTEQDSKDSTYSLSSTLTLSKADYEKHKVYACEVTHQGLSSPVTKSFNRGEC | 89.5
